Changes are numbered by the printed parent chain. In names and notes the source's numbering stands.
B1: BCL11B: FLAG-BCL11B, wild-type protein expressed in transfected HEK293T cells (protein)
chain: MSRRKQGNPQHLSQRELITPEADHVEAAILEEDEGLEIEEPSGLGLMVGGPDPDLLTCGQCQMNFPLGDILVFIEHKRKQCGGSLGACYDKALDKDSPPPSSRSELRKVSEPVEIGIQVTPDEDDHLLSPTKGICPKQENIAGPCRPAQLPAVAPIAASSHPHSSVITSPLRALGALPPCLPLPCCSARPVSGDGTQGEGQTEAPFGCQCQLSGKDEPSSYICTTCKQPFNSAWFLLQHAQNTHGFRIYLEPGPASSSLTPRLTIPPPLGPEAVAQSPLMNFLGDSNPFNLLRMTGPILRDHPGFGEGRLPGTPPLFSPPPRHHLDPHRLSAEEMGLVAQHPSAFDRVMRLNPMAIDSPAMDFSRRLRELAGNSSTPPPVSPGRGNPMHRLLNPFQPSPKSPFLSTPPLPPMPPGGTPPPQPPAKSKSCEFCGKTFKFQSNLIVHRRSHTGEKPYKCQLCDHACSQASKLKRHMKTHMHKAGSLAGRSDDGLSAASSPEPGTSELAGEGLKAADGDFRHHESDPSLGHEPEEEDEEEEEEEEELLLENESRPESSFSMDSELSRNRENGGGGVPGVPGAGGGAAKALADEKALVLGKVMENVGLGALPQYGELLADKQKRGAFLKRAAGGGDAGDDDDAGGCGDAGAGGAVNGRGGGFAPGTEPFPGLFPRKPAPLPSPGLNSAAKRIKVEKDLELPPAALIPSENVYSQWLVGYAASRHFMKDPFLGFTDARQSPFATSSEHSSENGSLRFSTPPGDLLDGGLSGRSGTASGGSTPHLGGPGPGRPSSKEGRRSDTCEYCGKVFKNCSNLTVHRRSHTGERPYKCELCNYACAQSSKLTRHMKTHGQIGKEVYRCDICQMPFSVYSTLEKHMKKWHGEHLLTNDVKIEQAERS
modifications: left off: FLAG, end not stated, kept
notes: FLAG-BCL11B, wild-type protein expressed in transfected HEK293T cells
B2: BCL11B p.R3S: FLAG-BCL11B p.R3S, patient-derived mutant protein expressed in transfected HEK293T cells (protein, UniProt Q9C0K0 1-894, looked up, variant R3S)
B-cell lymphoma/leukemia 11B: B1 chain with R3S
modifications: FLAG tag
notes: FLAG-BCL11B p.R3S, patient-derived mutant protein expressed in transfected HEK293T cells

Columns and labels:
PRC2 complex = test: Co-immunoprecipitation with PRC2 complex (EZH2) in transfected HEK293T cells; assay type: binding; settings: anti-FLAG co-IP, HEK293T extracts; EZH2 as PRC2 marker
Experimental: (§1) HEK293T cells were transfected with vectors encoding FLAG-BCL11B ([54]), FLAG-BCL11B p.R3S or Myc-SIRT1 using the calcium phosphate method. Transfected cells were harvested in ice-cold phosphate-buffered saline (PBS) 48 h after transfection. Cell suspensions were centrifuged at 2000g for 5 min, followed by lysis under native conditions in buffer containing 20 mM HEPES, pH 7.4, 250 mM NaCl, 2 mM EDTA, 10% glycerol, 0.5% NP-40, 0.1 mM PMSF, 1 μg/mL pepstatin A, 5 μg/mL leupeptin, 10 μM E64, 25 mM NaF, 5 mM […] and 10 mMN-ethylmaleimide. Cells were incubated on ice for 30 min with vortexing every 5 min, followed by sonication on ice to complete lysis and shear DNA. The lysate was cleared by centrifugation, and BCL11B was immunoprecipitated from native extracts with anti-FLAG antibody (Sigma F4042), as previously described ([54]). […] Fluorescent signal was recorded on an Odyssey dual-channel near-infrared imager (LI-COR) and analysed with manufacturer-supplied software (Image Studio, version 2.1).

SIRT1 = test: Co-immunoprecipitation with SIRT1 in transfected HEK293T cells; assay type: binding; settings: anti-FLAG co-IP, HEK293T extracts; Myc-SIRT1
Experimental: as §1

HEK293T cells = test: Immunocytochemistry (expression and nuclear localization) in HEK293T cells; assay type: cell-based; settings: 48 h after transfection, anti-BCL11B and DAPI
Experimental: HEK293T cells were grown on 0.1% gelatin-coated glass coverslips in 24-well plates seeded at 25 000 cells/well for 24 h prior to transfection with vectors encoding FLAG-BCL11B or FLAG-BCL11B p.R3S. Forty-eight hours after transfection, cells were washed twice with PBS, fixed in 4% paraformaldehyde in PBS for 10 min at room temperature, permeabilized with 0.3% Triton X-100/PBS for 10 min and washed twice with 0.1% Tween/PBS. The fixed and permeabilized cells were then prepared for immunocytochemistry by blocking for 1 h in 10% foetal bovine serum (FBS) in PBS, incubating for 4 h with rat anti-BCL11B monoclonal antibody (Abcam ab18465, 0.25 μg/ml) in 10% FBS/PBS, then incubating for 1.5 h with an anti-rat Cy3-conjugated secondary antibody (Jackson ImmunoResearch Laboratories, 1:500 dilution), followed by a final incubation in 10 μg/ml DAPI in PBS for 10 min. Cells were washed twice with 0.1% Tween/PBS between each immunocytochemistry step, and all incubations were conducted at room temperature. Cells were then washed twice with deionized water, followed by step-wise dehydration with 70% ethanol, 100% ethanol and xylene. Coverslips were then mounted on glass slides with DPX (VWR), dried overnight and stored at 4°C in the dark. Fluoromicrographs were obtained using a Zeiss microscope with appropriate filters and a 63× oil-immersion objective. […]

NuRD complex = test: Co-immunoprecipitation with NuRD complex (MTA2, HDAC2) in transfected HEK293T cells; assay type: binding; settings: anti-FLAG co-IP, HEK293T extracts; MTA2 and HDAC2 as NuRD markers
Experimental: as §1

| Molecule | interaction with PRC2 complex (PRC2 complex) | interaction with SIRT1 (SIRT1) | expression and nuclear localization (HEK293T cells) | interaction with NuRD complex (NuRD complex) |
| --- | --- | --- | --- | --- |
| B1 | demonstrated herein | – | – | – |
| B2 | does not interact with the NuRD or PRC2 complexes | did not alter interaction of the protein with the class III histone deacetylase SIRT1 | well expressed and localized in the nucleus in a manner that was indistinguishable from wild-type protein | does not interact with the NuRD or PRC2 complexes |
